A short description of the data set: soluble on expression in E. coli; label from the status in PepcDB or PDB records.
“SNAMNILIIGNGGREHALGWKAAQSPLADKIYVAPGNAGTALEPTLENVDIAATDIAGLLAFAQSHDIGLTIVGPEAPLVIGVVDAFRAAGLAIFGPTQAAAQLEGSKAFTKDFLARHNIPSAEYQNFTDVEAALAYVRQKGAPIVIKADGLAAGKGVIVAMTQEEAETAVNDMLAGNAFGDAGHRIVVEEFLDGEEASFIVMVDGENVLPMATSQDHKRVGDGDTGPNTGGMGAYSPAPVVTDDVHQRVMDQVIWPTVRGMAAEGNIYTGFLYAGLMISADGQPKVIEFNCRFGDPETQPIMLRMRSDLVELCLAGTQGKLNEKTSDWDERPSLGVVLAAGGYPADYRQGDVIHGLPQQEVKDGKVFHAGTKLNGNHEVVTNGGRVLCVTALGETVAQAQQYAYQLAEGIQWEGVFCRKDIGYRAIARGK”: the “soluble on expression in E. coli” value is “soluble”.
In the case of “MADLLNVLKDKLSGKNVKIVLPEGEDERVLTAATQLQATDYVTPIVLGDETKVQSLAQKLDLDISNIELINPATSELKAELVQSFVERRKGKATEEQAQELLNNVNYFGTMLVYAGKADGLVSGAAHSTGDTVRPALQIIKTKPGVSRTSGIFFMIKGDEQYIFGDCAINPELDSQGLAEIAVESAKSALSFGMDPKVAMLSFSTKGSAKSDDVTKVQEAVKLAQQKAEEEKLEAIIDGEFQFDAAIVPGVAEKKAPGAKLQGDANVFVFPSLEAGNIGYKIAQRLGGYDAVGPVLQGLNSPVNDLSRGCSIEDVYNLSIITAAQALQ”, the “soluble on expression in E. coli” value is given as “not soluble”.
Under “MGSDKIHHHHHHMNRTMSSINVLSLPVFNRDASGYDALRRGLIPCFDAFYGTALDLIDDWRDAEKLRVLDLGAGTGLFTAMLLTRHPDAQIHLIDASEKMLEQARKRFDGNPAITYAVADMANTELGGPWDLIISALAIHHLEDIGKKHLFGEIRGALSEGGLFVNVEQVLGHDPEVEARYARTWLQQVRRLGVAEVEIAKAHERMSHDRCSPLENQLQWMRDTGFCEIDCSFKAWRFAVLSGRR” stands “not soluble”; under “MSLQADEQSNGKIKFSKFKVNIKNKDNKSNWTDMGTLVVEKVEYGIATGLNNDKQGGGHSSTFFSLEEEEVNNFVKAMTEGGSFKTSLYYGYKYEQSDEKGIQNKEIITKIEDINCSKHITFSGDKIAKNEGHHHHHH”, “not soluble”.
Under “MITVVIASRLREDRLDYLTAMHASLTRQSVPWEAVIALDGASPDRLPRQLAQDPRVDTLVLPRPVGAACARNLALTQVRTRYVNWADDDDEFTDDAMSVRLETLESTGVGWCAGWSEDQFRDGSTRLWRCPTPPGRHEAGDVWTFWKSPADTIPIGPTTILARTDLVRAAPMGGLVQGEDYCAALGVTALAPGILLPLPVYRYRKWGGQMTAQDGYDQLETAAREHAWAYGRSLRAVLRGGEDLVHVLEHHHHHH” stands “not soluble”.
As to “ASEEEKAWLMASRQQLAKETSNFGFSLLRKISMRHDGNMVFSPFGMSLAMTGLMLGATGPTETQIKRGLHLQALKPTKPGLLPSLFKGLRETLSRNLELGLTQGSFAFIHKDFDVKETFFNLSKRYFDTECVPMNFRNASQAKRLMNHYINKETRGKIPKLFDEINPETKLILVDYILFKGKWLTPFDPVFTEVDTFHLDKYKTIKVPMMYGAGKFASTFDKNFRCHVLKLPYQGNATMLVVLMEKMGDHLALEDYLTTDLVETWLRNMKTRNMEVFFPKFKLDQKYEMHELLRQMGIRRIFSPFADLSELSATGRNLQVSRVLQRTVIEVDERGTEAVAGILSEITAYSMPPVIKVDRPFHFMIYEETSGMLLFLGRVVNPTLL”, the “soluble on expression in E. coli” value is listed as “soluble”.
For “SLQCLRFAGAATHPAQAPCMPGPACEPVETFLKTCQAPGSEPTGAASLRAKYLPPSTASIRVSAGLLRAALEDSHSGFHLCSATLRWLLAENAAVDVVRAQTLSSIQGIAPDGTDVNLTVHEVAVTDLSPAGPIQAVEIQVESSSLANMCRAHHAIIRRIQTMVTEQAALGSSPPDLRMQYLQQIHANHQELLREVQALRDQLCTEDELSSCSTAQKLLHIYKQLRNPSLVLL”, the “soluble on expression in E. coli” value was “not soluble”.
Take “MGSDKIHHHHHHMSAQVQDLTPIKGVTYYYPPHDAVLVFKDGAAEIPYGGLPVPLLEEDYASLDGEPSYDAVGRGVYQTLRTNPDCIHCAAYATLLRDAYPHYLAELASHAIMLDSKDVEVPYIDRKIVSLKVLSLLEPDNAGLPLEIGRAYLDRGLRLSALHMSTVSIYRAEHFLRRALELTPEDGRALRLLGEVCYLLGKYEEAASCWLDTLDLADADEAERFRVRLARISEGRLPLIAPVDYLEAIGAAFTCFHTGDYEEAVAILQDVLMDGIFCAEFPIADIHCVIGKSFVQLDMPRYAEESFRAALQLDPAHEESLACLRKVTGEE”: the “soluble on expression in E. coli” value was “not soluble”.
Turning to “MIPKVIHYCWFGGNPLPDNLKKYIKTWREQCPDYEIIEWNEHNYDVSKNVFMREAYTKKNFAYVSDYARLDIIYTYGGFYLDTDVELLKSLDPLRIHECFLAREISCDVNTGLIIGAVKGHHFLKSNMSIYDKSDLTSLNKTCVEVTTNLLINRGLKNKNIIQKIDDITIYPRNYFNPKNLLTGKVDCLTSVTYSIHHYEGSWKSSSFISDSLKIRVRLIIDFLFGYGTYRMLLRFLKLKKLEHHHHHH”, the “soluble on expression in E. coli” value is on record as “soluble”.
In the case of “MGSDKIHHHHHHMPLSPQQDILEIDQDASVLRFAPQAGGRLMSWTIDGEAVIHWPEHADWSQPARIRGGNPLLFPFLGRHRVDGKIGYWRDAKGTVRELPMHGFARDLPFEAHADVHGAGLRMILTDSTATRHGYPFGFRLETAYCLADARTLDVTFTTTNTGDSRLPSRLPYYAGHHFYFTLPHTQRAATSLELPRTERRHQQDDGSISAAEPGEARYTLDEARIQDRFHCLAGAPDRPVRLVAPGLDRIVTIDLQRPDSIPWYAVTTWTEAAESDFYCVEPWLGLPDAIHNGMGLRWLEPGQTEVAALRISVDKLG”, the “soluble on expression in E. coli” value was “not soluble”.
With “MVTKEQVVEALEGIVDPFLHKTLKETSAIKEVTVKPEKEHVSVKIAIVKTGTAEQMQLQSGIVKLVKELGAATVGLRFAEFTEEELAQFAPEQEEEQSESLLSPNSKTTFLAVASGKGGVGKSTVSVNLAVALARLGKKVGIIDADIYGFSVPDMMGIEKRPIVRGDKIIPVERLGVKVISMGFFVEDNAPVIWRGPMLGKMLNHFFTEVEWGDLDYLVLDLPPGTGDVALDVHSMLPSCKEIIVTTPHPTAAFVAARAGAMALRTEHSILGVVENMAYFESKVTGEKEYVFGKGGGDKLATELQTNVLGRIPLQQPDWNKEDFAPSVYEDTHTTGIIYSKIAETVIDKTAVTQKLEHHHHHH”, the “soluble on expression in E. coli” value is reported as “soluble”.
With “MSTCSDESCDKECPLCMETLELDDINFYPCKCEYQICRFCWHRIRTDENGLCPACRQPYPEDPVNFKPMTTDDVRKHKDEQRLKKQAEKLKLSDARQYLCNYRVLQKNLVYVVGLSPRVADPEILKKNEYFGRYGKIQKIVTSATPSLPAPHLPPSHTAYVTYKRVDDALRAIQGVHNSMLDGRLVKASLGTTKYCSSFLNSRKCFKPVGECMYLHENAEAEISFTKDDMHLGKHTEYEKRLIESMNSRPPPPQSTLASQLDKILAPTSNSPRRYLEDDSDTVDDVERTGSAIHMCADDPDDDDADSTNTSNSIDDPAPSNPADETVNSRRSNQTARERQWSERDEISVAPSNTPPTDPEGNENEFEEDIHRNDVSDLMSKLDVNDDRLARTSFSENDYLGIPAPAKHQEAPAPLMQWEALLGLSSPSAQSTIVEPSSLFPTFKMDSGFNSQSLFGTHTSSTPSFRREASPPPGLARFNSDDDLGFDPFTESSKGLSALLQEEQEQIPPHNSASNHTLDVLKQLFGQLPEQRQSTQQHPQHLQSSHQQHPLQQNQDQHHSFLHQLHAQQQHQQQQFAADMNRQQDYMYSRLMSQQQQQSQQQRQFDSTPGFSHPFGSMQQQQQSSQQQQHQSQSSQSSSLLQDLFNRQQQQHQAQQQAQQHQQQQMYAGINSYMYNDMLMPRVPFGMAPPPGLGGPSTNRSSTTQQAPPHMTQQSQQQQQQQQSSMGLFGMGGHQSMMQDHQSQQPQSAQDAFKALLPNVNVRFMDDNSMSRWSHENSLRSSAVPPPPGFSSVMNR”, the “soluble on expression in E. coli” value is reported as “not soluble”.
Under “GPGSMKERYDPLPPQLETYLRLIPPTSGAASGKADGDKKTGPRRSDDDPMSFYCTSFLMSREWDVQKAFAMMQEVVAYRAVNHLDEQSHFPPAFSVRGWSTEDVCRALERSPRKVGERIDRVCAGVAQGLICGIHYWDKNGRPVFYMVIDSFDEAELMRQLKQMASVGKSHVDVMWEYMVHVLSVTESLVLYQLIQRGAPLSGRPLTSKTTDEEAPAWDLSEGAVTMVYDMKRLTLKMLWKPIIDMFCDNSKTFFNYYPDRIHRIVCVNSPSLVRYAFLLVRGVLPAAFQRKISFVSPHDTLATLETMIDRKYIPHFLGGDCRCEAHDGECLSGYDPRQTGRTRRTVARTDASSEGNDEAPTVYVKLAAGHECTRVFPVNASEVVVWEFAVEGGGHDIIFTTFFVPQSAASGMQWTQVELSKLSSYMVTSEALAKGSDAFAVAEDGVVVLKWHNRRHWFASKRLQLRAYKEGAPSTLHGQASHPE” stands “not soluble”; under “MKITHCKLKKKVQKELLRFFVLEVTARSAADILGIHPNSAVLFYRKIRTVINHHLALAADEVFEGPVEPDESDFGGRRKGRRGRGAAGKVVVFGILKRNGRGYTVVVDNAKSETLLPVIKKKIMPDSIVYTDSLSSCDKLDVSGFIHYRINHSKEFADRQNHINGIENFWNQAKRVLRKYNGIDRKSFPLFLKECEFRFNFGTPSQQLKILRDWCGILEHHHHHH”, “soluble”.
“MAISDGRTGNTRQAEALASTLVGSLYTTQVLKPRIPWRWTAPYCLPGAKHAFGTTFSHALRYPPFLAIGCGRQAALATRLLHKQGACVVQILDPRLPARHWDLLVVPEHDHIRGHNVLTLLGSLHPVNDVWLATGRAQFPELGDLPGQRVALLVGAPTPQAPWQPAQLEELCTALVKGLSCGGSVLATTSRRTPPELATQLRKHLATIPGLFWNNTDKGANPYPGILGWADAIIATADSVNLLSEACATRAPVTAAFANQTRGRIRCFIDALGARLCTVENLLAIDTLAQPLRETERIANEVRAWFGMV”: the “soluble on expression in E. coli” value is given as “not soluble”.

These data come from the DeepSol protein solubility set.
